Assay results as given in patent US20260327306 (published 2026).

Biological target: T1, Human NKp30 (BKM0179) (human, UniProt O14931)
T1 chain: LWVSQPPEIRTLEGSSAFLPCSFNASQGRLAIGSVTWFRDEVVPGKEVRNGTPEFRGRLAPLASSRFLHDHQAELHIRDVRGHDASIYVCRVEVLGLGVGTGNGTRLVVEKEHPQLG

Kd: 3.2 nM
B1: BKM0138 (BJM0411 VL-N95A) (antibody, V domains shown)
VH: EIQLLESGGGLVQPGGSLRLSCAVSGFSITTTGYHWNWVRQAPGKGLEWVGYIYSSGSTSYNPSLKSRFTISRDTSKNTFYLQMNSLRAEDTAVYYCARGDWHYFDYWGQGTMVTVSS
VL: DSVTTQSPLSLPVTLGQPASISCSGEKLSDKYVHWYQQRPGQSPRMLIYENDRRPSGVPDRFSGSNSGNDATLKVEAEDVGVYFCQFWDSTASAVFGGGTKVEIKI
